From PMC3554283 (Diabetes Care, 2013) come the findings set out here.

Data set [1] is described as follows: Serum insulin pharmacokinetics after subcutaneous injection. The format is in vivo, human. The following applies: 0.15 units/kg s.c., 14 healthy volunteers.
The test system of a further data set is healthy volunteers. Put plainly: Eight-hour euglycemic glucose clamp. The following applies: mean ± SD; 0.15 units/kg s.c.; 14 healthy volunteers; 8-h euglycemic clamp. Format: in vivo, human.

For insulin glulisine, in data set [1], the “onset (early t50%) of exposure” value is on record as 21 min and the tmax amounted to 80 min. For the same substance, in the data set with healthy volunteers, the “onset of action (early T50% GIRmax)” value came out at 47 ± 19 min and the “time to 50% glucose infused” value turned out to be 183 ± 34 min.
